Series [1] concerns the target T1, YhbO (Escherichia coli, UniProt P45470).
T1 construct: full-length ORF with N-terminal His6 tag (pET-19m), E. coli Rosetta (DE3); tagged mass 20,858 Da
T1 sequence (P45470 1-172): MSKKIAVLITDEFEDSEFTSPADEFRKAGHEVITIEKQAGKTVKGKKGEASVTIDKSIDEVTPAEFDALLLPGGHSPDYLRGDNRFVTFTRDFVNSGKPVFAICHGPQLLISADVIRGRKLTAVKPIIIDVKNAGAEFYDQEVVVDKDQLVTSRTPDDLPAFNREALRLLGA
Put plainly: 1D 1H NMR of end products. The conditions noted are these: 1 mM MGO, 20 μg enzyme, 50 mM PBS with 5% DMSO-d6, overnight, 4 °C. The format is biochemical.

Series [2] concerns the target Pseudomonas aeruginosa PfpI (PA0355), recombinant, N-terminal His6 tag (P. aeruginosa PAO1). In words: AUC; sedimentation velocity; 25 mM Tris-HCl (pH 8.0), 100 mM NaCl; 0.5, 1.0 and 2.0 mg/ml PfpI; 20 C, 24 h.
Substrate in series [3]: CC(=O)C=O
Put plainly: colorimetric lactate assay after heat quench, Michaelis-Menten fit. The format is biochemical, Pseudomonas aeruginosa. To be noted: PBS, 37 °C, 0.2 μM enzyme, glutathione-independent.

Regarding `CC(=O)C=O` [methylglyoxal], in series [1], the “1D 1H NMR of end products” value is given as “both enzymes quantitatively convert MGO to lactate”.

Usually stoichiometry N stands for a count of units in the complex or per binding partner. Consider “Pseudomonas aeruginosa PfpI (PA0355), recombinant, N-terminal His6 tag (enzyme)”, for which the stoichiometry N in series [2] was 2.

B1: PfpI (Pseudomonas aeruginosa PAO1) (protein)
chain: MTQSLHGKVVAALVTDGFEQVELTGPKKALEDAGATVRILSDKAGEVRGWNHHQPAEAFRVDGTFEDASLDDYDALLLPGGVINSDQIRSLAKAQELAIRAEQASKPVAVICHGAWLLISAGLVQGRTLTSWPSLKDDINNAGGHWVDQEVAVDGKLVSSRKPEDIPAFNRRFIEILAG
notes: full-length ORF (540 bp) with N-terminal His6 tag (pET-19m), E. coli Rosetta (DE3); tagged mass 21,246 Da
In general, Km refers to the substrate concentration at which the rate is half of its maximum. What is called kcat is the maximal rate divided by the concentration of active sites. Regarding B1, in series [3], the Km amounted to 369 ± 139 µM and the kcat amounted to 1.72 ± 0.367 s⁻¹.

These data come from publication PMC11987610, “Pseudomonas aeruginosa PfpI is a methylglyoxalase” (The Journal of Biological Chemistry, 2025).
